For 76 substances, Count results are on record in patent US20240207421A1, “NERVE TARGETING PEPTIDES AND METHODS OF USE” (ALUME BIOSCIENCES, INC., priority 2020, published 2024).

This assay deals with Human Myelin Basic Protein (Homo sapiens, UniProt P02686). The assay can be described thus: Phage display library screening (Example 2, Python script analysis), binding to Human Myelin Basic Protein. Also on record: Enzo 200-606-M001 from human; purchased Enzo 200-606-M001; host or cells: human brain (tissue-derived). The settings on record: R3 Myelin Basic Protein; combined unique sequence count, Python/R script analysis. On the procedure: Phage display library screens were used to identify peptides that bind to target proteins (including specific laminin trimers) that are expressed in human nerves, as described in Table 3. These screens were also carried out to identify peptides that could bind selectively to nerves versus muscle. Such peptides could therefore be useful for systemic in-vivo labeling of nerves during fluorescence assisted surgery. Specifically, m 13 phage libraries expressing 7 or 12 random amino acid peptides, or a cyclic peptide CX7C, on the N-terminus of the minor coat protein pIII (New England Biolabs; NEB) were processed through multiple rounds of selection for binding to target proteins expressed in nerves, or to excised human nerves, nerve extracts, or muscle, as described further below.
Chain of Human Myelin Basic Protein (P02686 134-304): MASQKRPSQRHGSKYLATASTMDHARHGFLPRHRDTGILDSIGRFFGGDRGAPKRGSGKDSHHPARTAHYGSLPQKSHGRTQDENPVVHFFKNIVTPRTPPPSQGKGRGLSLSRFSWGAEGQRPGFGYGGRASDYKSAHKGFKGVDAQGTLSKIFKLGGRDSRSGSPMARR
For screening against the specified target proteins in Table 1, including LN211, LN411, LN421, and LN521, the phage library was processed by up to 4 binding and wash cycles. For selection, phage libraries were incubated for up to 24 hours at 4° C. in 96 well plates that had been coated with one of the target proteins. Plates were then washed with PBS and phage were eluted using 0.2M glycine pH 2.0. Phage supernatants where then neutralized with Tris pH 9.0 prior to plating on TGI bacteria and LB agar plates. Colonies were counted to determine titer followed by DNA preparation of pools of phage and NextGen sequencing. After rounds of selection, phage were pooled and amplified for iterative selection. Phage that were bound at each round were sequenced. NextGen sequencing of pools after 2, 3 and 4 rounds of selection was used to isolate candidate sequences that were analyzed further to identify those that specifically bound each unique target protein.
Python Script Analysis: For all NEB sequence datasets, a python script was used to translate, trim, and filter the peptide sequences. The script translated the nucleotide sequences, translating amber codons as glutamine in peptide sequences, and then trimmed the end sequences that come from the vector. Secondly, the script combined the unique counts of trimmed peptides with identical sequences. […] Another python script was used to group peptides from different assays according to protein target (Myelin Protein Zero, Myelin Proteolipid Protein, Myelin Basic Protein, and Nidogen-2) and also combine the unique sequence counts for each peptide. An R script was written to merge the peptide sequences from different data files and determine peptides specific for each protein target but absent from different protein binding datasets. Peptide sequences were ranked by unique sequence count.
“SEGLTLL (R3 Myelin Basic Protein-binding peptide)”: the Count was found to be 6.

Consider “ESPYPHS (R3 Myelin Basic Protein-binding peptide)”, for which the Count is 7.

With “KVHHLAR (R3 Myelin Basic Protein-binding peptide)”, the Count came to 6. For “TQMTMDS (R3 Myelin Basic Protein-binding peptide)” the value was 10; for “SNAERWR (R3 Myelin Basic Protein-binding peptide)”, 9.

Take “NLTYLRF (R3 Myelin Basic Protein-binding peptide)”: the Count is on record as 6. Turning to “HPTGTPT (R3 Myelin Basic Protein-binding peptide)”, the Count is 7. “NGVSSSL (R3 Myelin Basic Protein-binding peptide)”: the Count stood at 6. As for “AQFLTIY (R3 Myelin Basic Protein-binding peptide)”, the figure is 6; as for “HFYGPGP (R3 Myelin Basic Protein-binding peptide)”, 9; as for “MPSLKHQ (R3 Myelin Basic Protein-binding peptide)”, 8. As for “RSRKHRP (R3 Myelin Basic Protein-binding peptide)”, the Count was 6.

For the substance “KIITTKS (R3 Myelin Basic Protein-binding peptide)”, the Count came to 6.

Consider “SRHLPPL (R3 Myelin Basic Protein-binding peptide)”, for which the Count is 6. For “VAHQRVS (R3 Myelin Basic Protein-binding peptide)” the value was 8.

As to “MDLSLKP (R3 Myelin Basic Protein-binding peptide)”, the Count is given as 10. As for “ALYNQMT (R3 Myelin Basic Protein-binding peptide)”, the figure is 6; as for “QYWDILG (R3 Myelin Basic Protein-binding peptide)”, 6. For “SWFESHN (R3 Myelin Basic Protein-binding peptide)” the value was 8; for “TGSVSKQ (R3 Myelin Basic Protein-binding peptide)”, 6; for “LVPPVNH (R3 Myelin Basic Protein-binding peptide)”, 6. For “WDLRHSK (R3 Myelin Basic Protein-binding peptide)” the value was 6. As to “HPDTLPQ (R3 Myelin Basic Protein-binding peptide)”, the Count is reported as 7. As for “TLLTALT (R3 Myelin Basic Protein-binding peptide)”, the figure is 7; as for “TPQVMLK (R3 Myelin Basic Protein-binding peptide)”, 8; as for “LPPQISR (R3 Myelin Basic Protein-binding peptide)”, 8. As for “FKLPWAS (R3 Myelin Basic Protein-binding peptide)”, the figure is 7; as for “CNRVPFKQC (R3 Myelin Basic Protein-binding peptide)”, 7. On to “SNAHTLP (R3 Myelin Basic Protein-binding peptide)”, for which the Count is reported as 6.

For the substance “QNSYLSN (R3 Myelin Basic Protein-binding peptide)”, the Count was 8. For “SLWTHRT (R3 Myelin Basic Protein-binding peptide)” the value was 6; for “LFRRVTE (R3 Myelin Basic Protein-binding peptide)”, 7.

As for “YPYVPIY (R3 Myelin Basic Protein-binding peptide)”, the Count amounted to 6. For “GPRVTPH (R3 Myelin Basic Protein-binding peptide)” the value was 6; for “NGPNSLQ (R3 Myelin Basic Protein-binding peptide)”, 6. Consider “HYSPNVM (R3 Myelin Basic Protein-binding peptide)”, for which the Count is 9. With “SIAEVLGLWRNV (R3 Myelin Basic Protein-binding peptide)”, the Count is given as 7. For the substance “SAVLMPP (R3 Myelin Basic Protein-binding peptide)”, the Count is recorded as 6. For “QGAYVRP (R3 Myelin Basic Protein-binding peptide)”, the Count amounted to 6. In the case of “TPLYLSS (R3 Myelin Basic Protein-binding peptide)”, the Count is recorded as 7. As to “VVDMSTY (R3 Myelin Basic Protein-binding peptide)”, the Count turned out to be 7. Consider “MTNHGNA (R3 Myelin Basic Protein-binding peptide)”, for which the Count came out at 7.

Regarding “SEPGTVR (R3 Myelin Basic Protein-binding peptide)”, the Count is 7.

Consider “AGSLLSL (R3 Myelin Basic Protein-binding peptide)”, for which the Count was determined as 6. In the case of “IILPSAQ (R3 Myelin Basic Protein-binding peptide)”, the Count is 8.

For “SISKIRT (R3 Myelin Basic Protein-binding peptide)”, the Count was 7. As for “AKFTMWV (R3 Myelin Basic Protein-binding peptide)”, the figure is 6; as for “THKHMMT (R3 Myelin Basic Protein-binding peptide)”, 6; as for “VIRTAAM (R3 Myelin Basic Protein-binding peptide)”, 6. As for “HPWLGNR (R3 Myelin Basic Protein-binding peptide)”, the Count worked out at 9. As for “GHSHYILGKPTA (R3 Myelin Basic Protein-binding peptide)”, the figure is 7. As for “YSSRLND (R3 Myelin Basic Protein-binding peptide)”, the figure is 6; as for “KGQPLFR (R3 Myelin Basic Protein-binding peptide)”, 7; as for “ALGTRPL (R3 Myelin Basic Protein-binding peptide)”, 7. On to “ARVPNPL (R3 Myelin Basic Protein-binding peptide)”, for which the Count is 6. For “HRTHLHQ (R3 Myelin Basic Protein-binding peptide)” the value was 6; for “FSARTNT (R3 Myelin Basic Protein-binding peptide)”, 9; for “SGPFPLV (R3 Myelin Basic Protein-binding peptide)”, 6. Consider “KYRHGAE (R3 Myelin Basic Protein-binding peptide)”, for which the Count is listed as 7. For “FSAGVGK (R3 Myelin Basic Protein-binding peptide)” the value was 7; for “HTGLRSL (R3 Myelin Basic Protein-binding peptide)”, 7. As for “SYRSMAP (R3 Myelin Basic Protein-binding peptide)”, the figure is 6. For “QKALPQT (R3 Myelin Basic Protein-binding peptide)” the value was 6. For the substance “DSYLLSA (R3 Myelin Basic Protein-binding peptide)”, the Count is listed as 8. Regarding “WDLPQNR (R3 Myelin Basic Protein-binding peptide)”, the Count was found to be 6. For the substance “SKPHASH (R3 Myelin Basic Protein-binding peptide)”, the Count was found to be 6. For “LITHPQL (R3 Myelin Basic Protein-binding peptide)” the value was 6; for “AVRQTTM (R3 Myelin Basic Protein-binding peptide)”, 7. With “TTTQGHP (R3 Myelin Basic Protein-binding peptide)”, the Count is given as 6. Turning to “NSSPHQI (R3 Myelin Basic Protein-binding peptide)”, the Count is listed as 7.

With “SLWQTLR (R3 Myelin Basic Protein-binding peptide)”, the Count was 6. With “MNSPLAQ (R3 Myelin Basic Protein-binding peptide)”, the Count is reported as 6. In the case of “HPWSHPN (R3 Myelin Basic Protein-binding peptide)”, the Count is 6. Consider “YATATPS (R3 Myelin Basic Protein-binding peptide)”, for which the Count is given as 8. For “SPPRFIP (R3 Myelin Basic Protein-binding peptide)” the value was 8; for “SPKPDIP (R3 Myelin Basic Protein-binding peptide)”, 6.
